Test results: the supplement of paper PMC10567573

B1: RSAD1 (parent)
chain: YCNFNKYIPRRLEEAAMQKCLVTE
B2: GLTSCR2 (parent)
chain: LARRRRRRQARREAEADKPRRLGR

Variants of: B1
Experiment: protein stability index of a GFP-peptide fusion (GPS, HEK-293T) (PSI 1-6); higher = more stable
Conditions: c terminus: a fixed tail appended
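Further: lentivirally expressed fusions sorted by FACS into six bins by GFP to DsRed ratio, PSI derived from sequencing read proportions per bin multiplied by bin number.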

Point of comparison: I8D, protein stability index 2.3. Against it:
- E13Y — lower, 1.88
- E13T — higher, 2.55
- E13G — lower, 2.11
- E13C — lower, 1.99
- E13I — lower, 1.66
- E13A — higher, 2.63
- E24D — higher, 2.4
- E24P — lower, 2.28
- F4M — higher, 2.35
- F4V — higher, 3.15
- F4G — higher, 2.66
- F4P — higher, 2.82
- F4R — lower, 1.95
- F4K — lower, 2.26
- R10C — higher, 3.8
- R10G — lower, 1.24
- R10A — lower, 1.91
- R10E — lower, 1.26
- R10W — higher, 3.64
- R10S — lower, 1.48
- Y7Q — lower, 1.8
- Y7R — higher, 2.31
- Y7F — higher, 3.98
- Y7P — higher, 2.42
- I8F — higher, 2.48
- I8L — lower, 2.05
- P9Q — lower, 1.54
- P9D — higher, 2.38
- P9T — lower, 1.79
- L21T — lower, 2.04
- L21R — lower, 1.51
- L21F — higher, 2.97
- L21P — lower, 2.17
- L21H — higher, 2.69
- L21C — lower, 2.15
- C20E — lower, 2.02
- C20I — higher, 3.05
- C20V — lower, 1.89
- C20Q — lower, 2
- C20H — higher, 2.31
- C20N — higher, 2.44
- C20A — higher, 2.87
- C20W — higher, 2.77
- C20M — lower, 2.27
- Y1V — lower, 1.99
- Y1H — higher, 2.94
- Y1R — lower, 1.96
- Y1N — higher, 2.58
- M17N — lower, 2.11
- M17D — higher, 3.71
- L12R — higher, 2.41
- L12F — lower, 2.15
- C2S — lower, 1.84
- C2K — higher, 2.31
- C2F — higher, 2.35
- C2R — higher, 2.42
- C2D — higher, 2.88
- E14I — higher, 2.32
- E14S — higher, 2.5
- E14N — higher, 3.14
- E14L — higher, 2.34
- E14V — higher, 3.05
- N3A — lower, 2.13
- N3G — higher, 2.94
- N3Y — lower, 1.63
- N3S — lower, 1.84
- N3F — higher, 2.4
- N3C — lower, 1.95
- R11F — higher, 3.01
- R11C — lower, 2.17
- R11W — higher, 2.73
- K6L — higher, 2.58
- K6C — lower, 1.43
- K6Q — lower, 1.5
- K6D — higher, 2.9
- Q18F — higher, 2.34
- Q18N — higher, 3.44
- N5D — lower, 1.49
- N5F — lower, 1.25
- N5S — higher, 3.3
- N5L — higher, 3.04
- N5G — higher, 2.91
- N5H — higher, 2.31
- T23D — lower, 1.78
- V22W — lower, 2.23
- V22H — higher, 2.78
- V22G — lower, 2.02
- V22N — higher, 2.35
- A15N — lower, 2.09
- A15F — lower, 2.02
- A15P — higher, 2.85
- A15E — lower, 1.84
- A15K — lower, 1.69
- K19D — lower, 1.68
- K19Y — higher, 2.31
- K19P — higher, 2.76
- K19M — higher, 4.09
- K19Q — higher, 2.96
- K19S — higher, 2.41
- A16Y — lower, 2.16
- A16L — lower, 1.41
- A16H — higher, 3.97
- A16R — higher, 2.39

Variants of: B2
Experiment: as above
Conditions: c terminus: a fixed tail appended

Point of comparison: G23P, protein stability index 4.77. Against it:
- R24E — lower, 4.12
- R24S — higher, 4.85
- R24Y — higher, 4.8
- R24C — lower, 4.44
- R24G — higher, 4.79
- R24W — lower, 3.84
- R24M — lower, 4.28
- R24L — lower, 4.58
- R24P — lower, 4.67
- R24V — lower, 4.42
- R24Q — lower, 4.62
- R24A — lower, 4.72
- R24N — lower, 4.28
- R24H — higher, 4.8
- R24I — lower, 4.47
- R24D — higher, 5.02
- R24F — lower, 4.3
- R24T — lower, 4.6
- R24K — lower, 4.67
- G23K — lower, 3.76
- G23Q — lower, 4.51
- G23D — higher, 4.9
- G23R — lower, 4.57
- G23I — lower, 4.53
- G23E — lower, 4.68
- G23M — lower, 4.17
- G23Y — lower, 4.44
- G23T — higher, 5.05
- G23L — lower, 4.18
- G23W — lower, 4.46
- G23S — higher, 5.18
- G23H — higher, 4.79
- G23V — lower, 4.45
- G23N — lower, 4.64
- G23C — lower, 4.57
- G23F — lower, 4.44
- G23A — lower, 4.34
- R21T — higher, 4.83
- R21V — lower, 4.67
- R21S — higher, 5.15
- R21Y — higher, 4.94
- R21Q — higher, 5.13
- R21W — lower, 3.64
- L22F — lower, 3.87
- L22V — higher, 5.4
- L22I — lower, 4.7
- L22G — lower, 4.3
- L22A — lower, 4.74
- L22W — lower, 4.62
- L22M — lower, 4.74
- L22D — higher, 5.31
- L22K — lower, 4.71
- L22C — lower, 4.53
- L22H — lower, 4.23
- L22R — higher, 5.04
- L22Q — higher, 4.87
- L22Y — lower, 4.35
- L22S — higher, 5.13
- L22E — higher, 5.15
- L22P — lower, 4.15
- L22T — lower, 4.74
- L22N — lower, 4.62
